Assay results reported in patent publication US20110171215A1 (published 2011).

Target: Monomeric soluble human PD-1 (human, UniProt Q15116 25-170)
Assay: SPR

Chain of Monomeric soluble human PD-1 (Q15116 25-170): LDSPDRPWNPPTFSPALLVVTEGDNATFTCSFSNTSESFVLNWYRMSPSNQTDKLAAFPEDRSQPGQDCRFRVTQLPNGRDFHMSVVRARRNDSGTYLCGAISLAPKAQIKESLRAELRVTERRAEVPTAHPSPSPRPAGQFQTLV

Row | koff [s⁻¹] | Binder
1 | ~0.0013 | Clone 19 anti-PD-1 antibody (antibody, V domains shown) VH: QVQLQQSGAELVKPGASVKMSCKAFGYTFTTYPIEWMKQNHGKSLEWIGNFHPYNDDTKYNEKFKGKAKLTVEKSSTTVYLELSRLTSDDSAVYYCARENYGSHGGFVYWGQGTLVTV VL: ENVLTQSPAIMSASPGEKVTMTCRASSSVISSYLHWYQQKSGASPKLWIYSTSNLASGVPDRFSGSGSGTSYSLTISSVEAEDAATYYCQQYNGYPLTFGAGTKLEIK
2 | ~0.0027 | Clone 2 anti-PD-1 antibody (antibody, V domains shown) VH: QVQLQQPGAELVKPGASVKLSCKASGYTFTTYYLYWVRQRPGQGLEWIGGINPSNGGTNFNEKFKSKATLTVDKSSSTAYMQLNSLTSEDSAVYYCTRRDYRYDRGFDYWGQGTSVTV VL: DIVLTQSPASLAVSLGQRATISCRASKSVSTSGFNYIHWYQQKPGQPPKLLIYLASNLESGVPARFSGSGSGTDFTLNIHPVEDEDAATYYCQHSRELPLTFGAGTKLEIK
3 | ~0.4 | Clone 10 anti-PD-1 antibody (antibody, V domains shown) VH: DVQLQESGPGLVKPSQSLSLTCTVTGYSITSDYAWNWIRQFPGNKLEWMGYINYSGSTSYNPSLKSRISITRDTSKNQFFLQLNSVTTEDTATYYCARWIGSSAWYFDVWGAGTTVTV VL: DVLMTQTPLSLPVSLGDQASISCRSGQNIVHSNGNTYLEWYLQKPGQSPKLLIYKVSNRFFGVPDRISGSGSGTDFTLKISRVEAEDLGVYFCFQGSHVPFTFGSGTKLEIK
